Data: patent US9228015B2, “Nogo receptor antagonists and methods of increasing neurite outgrowth” (Biogen Idec MA Inc., priority 2006, dated 2016)
Entries after “also recorded” stand apart in the source; their conditions may differ.

Key:
rat NgR1 = target: T1, rat NgR1 (Rattus norvegicus, UniProt Q99M75); experiment: Antibody binding specificity: rat Nogo receptor-1
T1 sequence (Q99M75 27-310): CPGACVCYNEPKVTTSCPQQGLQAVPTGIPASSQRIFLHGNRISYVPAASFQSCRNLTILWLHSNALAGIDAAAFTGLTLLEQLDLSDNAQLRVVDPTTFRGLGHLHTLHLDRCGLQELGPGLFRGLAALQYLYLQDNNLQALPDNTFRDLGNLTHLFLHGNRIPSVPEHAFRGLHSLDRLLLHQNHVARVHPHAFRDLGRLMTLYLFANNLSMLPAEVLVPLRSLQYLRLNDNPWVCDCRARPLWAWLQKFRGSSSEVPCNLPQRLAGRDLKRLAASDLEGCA

mouse NgR1 = target: T2, mouse NgR1 (Mus musculus, UniProt Q99PI8); experiment: Antibody binding specificity: mouse Nogo receptor-1
T2 sequence (Q99PI8 27-447): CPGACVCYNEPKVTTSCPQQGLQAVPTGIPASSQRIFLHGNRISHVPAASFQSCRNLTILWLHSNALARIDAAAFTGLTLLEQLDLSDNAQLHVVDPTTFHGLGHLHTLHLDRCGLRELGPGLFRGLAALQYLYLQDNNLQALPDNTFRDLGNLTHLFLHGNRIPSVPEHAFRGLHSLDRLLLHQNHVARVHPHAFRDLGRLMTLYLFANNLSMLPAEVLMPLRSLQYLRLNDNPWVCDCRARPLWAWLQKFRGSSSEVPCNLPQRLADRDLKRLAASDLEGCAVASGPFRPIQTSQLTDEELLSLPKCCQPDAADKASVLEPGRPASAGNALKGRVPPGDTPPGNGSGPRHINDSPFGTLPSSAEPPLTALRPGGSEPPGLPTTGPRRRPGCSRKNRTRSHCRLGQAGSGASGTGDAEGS

human NgR2 = target: T3, human NgR2 (Homo sapiens, UniProt Q86UN3); experiment: Antibody binding specificity: human Nogo receptor-2
T3 sequence (Q86UN3 47-390): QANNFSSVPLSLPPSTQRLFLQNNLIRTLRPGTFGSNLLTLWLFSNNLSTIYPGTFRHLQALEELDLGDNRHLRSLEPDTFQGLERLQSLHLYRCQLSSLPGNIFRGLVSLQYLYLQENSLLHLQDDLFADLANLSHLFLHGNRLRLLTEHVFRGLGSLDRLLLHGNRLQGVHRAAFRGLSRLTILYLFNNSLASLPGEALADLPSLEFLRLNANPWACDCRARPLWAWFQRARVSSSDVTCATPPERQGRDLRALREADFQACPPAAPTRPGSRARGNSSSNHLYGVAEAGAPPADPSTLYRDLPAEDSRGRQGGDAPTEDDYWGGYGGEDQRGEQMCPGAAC

mouse NgR3 = target: T4, mouse NgR3 (Mus musculus, UniProt Q8K0S5); experiment: Antibody binding specificity: mouse Nogo receptor-3
T4 sequence (Q8K0S5 25-424): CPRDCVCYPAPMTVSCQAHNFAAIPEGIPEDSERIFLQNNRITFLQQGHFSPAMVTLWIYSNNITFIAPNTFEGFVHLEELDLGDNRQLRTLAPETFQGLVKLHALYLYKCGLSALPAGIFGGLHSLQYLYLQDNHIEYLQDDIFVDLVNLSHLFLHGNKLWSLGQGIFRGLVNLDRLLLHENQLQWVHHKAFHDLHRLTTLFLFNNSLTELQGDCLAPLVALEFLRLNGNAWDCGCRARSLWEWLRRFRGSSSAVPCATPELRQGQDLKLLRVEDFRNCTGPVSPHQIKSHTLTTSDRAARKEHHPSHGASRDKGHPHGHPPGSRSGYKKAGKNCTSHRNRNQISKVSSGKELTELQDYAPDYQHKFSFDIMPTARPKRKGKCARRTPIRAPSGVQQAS

[1] = target: T5, fragments of rat NgR1 (sNgR310) (Rattus norvegicus, UniProt Q99M75, A303T/C287S/C43R/E284G/T53A); experiment: Western blot of acid/CNBr fragments of sNgR310 probed with 7E11; format: binding
T5 construct: intact rat NgR1 (aa 27-aa 310); made in house
T5 sequence (Q99M75 27-310 C43R/T53A/E284G/C287S/A303T): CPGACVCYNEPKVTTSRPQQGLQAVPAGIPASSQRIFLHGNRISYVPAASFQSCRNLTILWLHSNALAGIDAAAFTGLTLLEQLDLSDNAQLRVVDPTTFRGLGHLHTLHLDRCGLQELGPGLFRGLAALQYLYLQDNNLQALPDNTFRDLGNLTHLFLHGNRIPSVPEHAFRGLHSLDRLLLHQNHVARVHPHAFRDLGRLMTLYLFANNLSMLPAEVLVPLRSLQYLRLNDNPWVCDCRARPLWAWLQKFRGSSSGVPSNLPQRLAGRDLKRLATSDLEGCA
Experimental: (§1) A recombinant fragment of the rat NgR1 that contains all 8 LRR domains and the N- and C-terminal caps (sNgR310) was treated with either acid or cyanogen bromide (CNBr) and separated the fragments by gel electrophoresis. Untreated sNgR310 migrates with an apparent molecular weight of 42 kDa. Acid treatment of sNgR310 produced two major cleavage products of 15 kDa (aa 27-aa 122) and 30 kDa (aa 123-aa 310). CNBr treatment generated three fragments, a 33/35 kDa doublet (aa 27-aa 229), which may represent fragments with heterogeneous glycosylation, a 10 kDa product (aa 241-aa 310), and an 11-amino-acid fragment (as 230-aa 240), which is not retained on the gel. […] Both the 15 kDa acid fragment and the 35 kDa CNBr fragment contained the sequence […] (SEQ ID NO: 1), consistent with 7E11 binding to a single epitope on NgR1.

[2] = target: T6, fragments of rat NgR1 (sNgR310) (Rattus norvegicus, UniProt Q99M75, A303T/C287S/E284G); experiment: as above; format: binding
T6 construct: intact rat NgR1 (aa 27-aa 310); made in house
T6 sequence (Q99M75 241-310 E284G/C287S/A303T): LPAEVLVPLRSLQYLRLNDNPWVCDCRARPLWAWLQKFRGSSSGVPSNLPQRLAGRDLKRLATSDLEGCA
Experimental: as §1

[3] = target: T7, fragments of rat NgR1 (sNgR310) (Rattus norvegicus, UniProt Q99M75, C43R/T53A); experiment: as above; format: binding
T7 construct: intact rat NgR1 (aa 27-aa 310); made in house
T7 sequence (Q99M75 27-122 C43R/T53A): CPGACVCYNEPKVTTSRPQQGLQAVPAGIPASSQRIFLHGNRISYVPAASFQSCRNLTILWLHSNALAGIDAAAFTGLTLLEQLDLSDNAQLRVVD
Experimental: as §1

[4] = target: T8, fragments of rat NgR1 (sNgR310) (Rattus norvegicus, UniProt Q99M75, C43R/T53A); experiment: as above; format: binding; remark: listed apart in the source
T8 construct: intact rat NgR1 (aa 27-aa 310); made in house
T8 sequence (Q99M75 27-229 C43R/T53A): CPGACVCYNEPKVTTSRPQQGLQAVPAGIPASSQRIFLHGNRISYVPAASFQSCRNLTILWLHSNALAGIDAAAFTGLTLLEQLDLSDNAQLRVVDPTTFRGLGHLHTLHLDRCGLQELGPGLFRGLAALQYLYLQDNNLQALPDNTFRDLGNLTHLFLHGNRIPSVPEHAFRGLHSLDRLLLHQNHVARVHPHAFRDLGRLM
Experimental: as §1

B1: 7E11: murine monoclonal anti-Nogo receptor-1 antibody, immunogen rat Nogo receptor-1 residues 110-125, IgG1 kappa, ATCC PTA-4587 (antibody, V domains shown)
VH: VQLQESGAELVMPGASVKMSCKASGYTFTDYWMHWVKQRPGQGLEWIGAIDPSDSYSSYNQNFKGKATLTVDGSSSTAYMQLSSLTSEDSAVYYCARRITEAGAWFAYWGQGTTVT
VL: MKLPVRLLVLMFWIPASSSDVVMTQTPLSLPVSLGDQASISCRSSQSLVHSNGNTYLHWYLQKPGQSPKLLIYKVSNRFSGVPDRFSGSGSGTDFTLKISRVDAEDLGVYFCSQSTHVPFTFGGGTKLEIKRADAAPTVSISHH
modifications: 7E11 heavy chain; 7E11 light chain
notes: murine monoclonal anti-Nogo receptor-1 antibody, immunogen rat Nogo receptor-1 residues 110-125, IgG1 kappa, ATCC PTA-4587
With B1 the “binding to rat Nogo receptor-1” value (rat NgR1) was “bound; also recorded: binds well”, the “binding to mouse Nogo receptor-1” value (mouse NgR1) was “not and poorly” and the “binding to human Nogo receptor-2” value (human NgR2) was “not”. The “binding to mouse Nogo receptor-3” value (mouse NgR3) was “not”, the “binding to intact rat NgR1 (aa 27-aa 310)” value [1] was “bound” and the “binding to the 10 kDa CNBr fragment (aa 241-aa 310)” value [2] was “did not bind”. The “binding to the 15 kDa acid fragment (aa 27-aa 122)” value [3] was “bound” and the “binding to the 35 kDa CNBr fragment (aa 27-aa 229)” value [4] was “bound”.
